Laboratory results published in the supplement of paper PMC11865577.

What follows are sequences tested on TO-3-N3 (biotin conjugate) (assay: pull-down binding Z-score (relative to library population); higher = stronger binding). Conditions: RNA library: Library-2.
Method in brief: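 Streptavidin beads bearing 100 pmol of a biotin-conjugated small molecule were incubated for 60 min at 25 °C with 1 μg of heat-folded, Cy5- or Cy3-end-labelled RNA library in phosphate/NaCl/KCl buffer. Hot SDS eluted the RNA that stayed bound after three washes, and this RNA was hybridised for 20 h at 55.5 °C to a DNA barcode microarray. Binding was expressed as a Z-score against the library mean and standard deviation, after subtraction of a beads-only signal and trimmed averaging of barcoded replicate probes.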

First: AAAAACACCCAAGAAGUUUUU
Second: AAAAAUCUUAGGGAAUUUGUGUUUAAGAAUAUUGAUGGUUAUUUUAAAAUAUAUUCUAAGCACACGCCUAUUAAUUUAGUGCGUGAUCUCCCUCAGGGUUUUU
The “pull-down binding Z-score” value of the first is higher: -0.552 for the first, -0.855 for the second.

Going from “AAACCCGGUAAUUUUAACAAAGACUUCUAUGACUUUGCUGUGUCUAAGGGUUU [SHAPE_invivo_SARS-CoV-2_Motif_278]” to “AAACCUAAUGAAUUAUCUAGAGUAUUAGGUUU [SHAPE_invitro_SARS-CoV-2_Motif_132]”, the “pull-down binding Z-score” value falls from -0.52 to -0.888.

Compared with AAACGAACUAAAUAUUAUAUUAGUUUUUCUGUUU, “AAACUCAAACCCGUCCUUGAUUGGCUUGAAGAGAAGUUUAAGGAAGGUGUAGAGUUU” is lower in “pull-down binding Z-score” value: -0.375 for the first, -0.653 for the second.

Compared with “AAACUUGUGCCCUUUUGGUGAAGUUUUUAACGCCACCAGAUUUGCAUCUGUUU [SHAPE_invivo_SARS-CoV-2_Motif_425]”, “AAAGGACUGGUAUGAUUUUGUAGAAAACCCAGAUAUAUUACGCGUAUACGCCAACUUAGGUGAACGUGUACGCCAAGCUUU” is higher in “pull-down binding Z-score” value: -1.12 for the first, -0.541 for the second.

First: AAAGUGCAGUGAAAAGAACAAUCAAGGGUACACACCACUGGUUGUUACUCACAAUUUUGACUUCACUUU
Second: AAAGUGCUUUUGUUAAUUUAAAACAAUUACCAUUUU [SHAPE_invivo_SARS-CoV-2_Motif_363]
The “pull-down binding Z-score” value of the first is higher: -0.381 for the first, -0.825 for the second.

First: AAAUAAGUACGAUACUUACCUG [U1snRNP5ss-3]
Second: AAAUAAGUAUGAUACUUACCUG [U1snRNP5ss-4]
The “pull-down binding Z-score” value of the first is higher: -0.109 for the first, -0.522 for the second.

Compared with AAAUUACCAUUUCAUCUUUUAAAUGGGAUUU, AAAUUCUUGGAACUGUUUCUUGGAAUUU is lower in “pull-down binding Z-score” value: 0.204 for the first, -0.802 for the second.

Going from AAAUUGCCGAUAAGUAUGUCCGCAAUUU to “AAAUUUACAAAACACCACCAAUUAAAGAUUUUGGUGGUUUUAAUUU [DMSMaPseq_invitro_SARS-CoV-2_Motif_425]”, the “pull-down binding Z-score” value rises from -0.317 to 1.34.

First: AAAUUUACAAGAAUUU [SHAPE_invivo_SARS-CoV-2_Motif_380]
Second: AAAUUUUUGGCUUUGUGUGCUGACUCUAUCAUUAUUGGUGGAGCUAAACUUAAAGCCUUGAAUUU [SHAPE_invivo_SARS-CoV-2_Motif_45]
The “pull-down binding Z-score” value of the first is lower: -0.131 for the first, 0.0535 for the second.

Going from “AACAAAUGUGUCAAUUUCAACUUCAAUGGUUUAACAGGCACAGGUGUU” to AACACCAGUUUACUCAUUCUUACCUGGUGUU, the “pull-down binding Z-score” value rises from -0.698 to -0.56.

First: AACACUUCCCACAGAAGUGUU
Second: AACAGCAGACAACCCUUAAGGGUGUAGAAGCUGUU
The “pull-down binding Z-score” value of the first is higher: -0.222 for the first, -0.872 for the second.

Compared with AACAGGAGUCACCUUUUGUU, “AACAUUAACCUCCACACGCAAGUUGUGGACAUGUCAAUGACAUAUGGACAACAGUUUGGUCCAACUUAUUUGGAUGGAGCUGAUGUU” is lower in “pull-down binding Z-score” value: -0.0743 for the first, -1 for the second.

Going from “AACAUUUACUUAUGCAUCAGCAUUGUGGGAAAUCCAACAGGUUGUAGAUGCAGAUAGUAAAAUUGUU [DMSMaPseq_invitro_SARS-CoV-2_Motif_222]” to “AACCAGUUAACUGGUU [SHAPE_invivo_SARS-CoV-2_Motif_126]”, the “pull-down binding Z-score” value rises from 0.159 to 0.328.

Compared with “AACCAUACAGGUGUUGUUGGAGAAGGUU [DMSMaPseq_invitro_SARS-CoV-2_Motif_31]”, AACCCUCACCUUAUGGGUU is lower in “pull-down binding Z-score” value: 0.0755 for the first, -0.558 for the second.

Going from “AACGAACUUUAAAAUCUGUGUGGCUGUCACUCGGCUGCAUGCUUAGUGCACUCACGCAGUAUAAUUAAUAACUAAUUACUGUCGUU” to “AACGGGGCGGGCCCUGGGCGGGGUAA [G4_2A2_VEGF-Pu22-mt2]”, the “pull-down binding Z-score” value rises from -1.01 to 8.94.

First: AACGGGGCGGGCCGGGGGCGGGGUAA [G4_2A2_VEGF-Pu22]
Second: AACGGGGCGGGCCUCGGGCGGGGUAA [G4_2A2_VEGF-Pu22-mt3]
The “pull-down binding Z-score” value of the first is lower: 8.27 for the first, 8.63 for the second.

Compared with “AACGGGGCGGGCCUGGGCGGGGUAA [G4_2A2_VEGF-Pu22-del]”, “AACGGGGCGGGCCUUGGGCGGGGUAA [G4_2A2_VEGF-Pu22-mt]” is lower in “pull-down binding Z-score” value: 8.83 for the first, 8.69 for the second.

Compared with “AACUACUAUUCAAACAAUUGUUGAGGUUCAACCUCAAUUAGAGAUGGAACUUACACCAGUUGUUCAGACUAUUGAAGUGAAUAGUUUUAGUGGUU”, AACUGAAAGUAAACCUUCAGUU is higher in “pull-down binding Z-score” value: -0.295 for the first, -0.172 for the second.

First: AACUGCUUUUGGCUUAGUUGCAGAGUGGUU
Second: AACUGGUAAUACACUUCAGUGUAUAAUGCUAGUU
The “pull-down binding Z-score” value of the first is higher: -0.63 for the first, -0.966 for the second.

Going from AACUGUGAUGUUGUAAUAGGAAUUGUCAACAACACAGUU to “AACUUCUUAAGAGUGCUUAUGAAAAUUUUAAUCAGCACGAAGUU”, the “pull-down binding Z-score” value rises from -0.296 to 0.425.

First: AACUUUAAUGUU [SHAPE_invitro_SARS-CoV-2_Motif_263]
Second: AACUUUAGCUUGUUUUGUGCUUGCUGCUGUU
The “pull-down binding Z-score” value of the first is lower: 0.212 for the first, 0.701 for the second.

First: AAGAAAGUUGAUGGUGUUGUCCAACAAUUACCUGAAACUUACUU [DMSMaPseq_invitro_SARS-CoV-2_Motif_358]
Second: AAGAAGCUGCGCUGUGCACCUUUUU [DMSMaPseq_invitro_SARS-CoV-2_Motif_178]
The “pull-down binding Z-score” value of the first is lower: -1.04 for the first, -0.433 for the second.

First: AAGAAGGUCAAAUCAAUGAUAUGAUUUUAUCUCUUCUU
Second: AAGACUCAUCUCUAUGAUGGGUUUU
The “pull-down binding Z-score” value of the first is higher: -0.253 for the first, -0.938 for the second.

Going from “AAGAGAAAGUCAACAUCAAUAUUGUUGGUGACUUUAAACUU” to AAGCUGAUGAGUACGAACUUAUGUACUCAUUCGUUU, the “pull-down binding Z-score” value falls from 0.608 to -0.634.

Compared with “AAGGAGCUGGUGGCCAUAGUUACGGCGCCGAUCUAAAGUCAUUUGACUUAGGCGACGAGCUUGGCACUGAUCCUU [DMSMaPseq_invitro_SARS-CoV-2_Motif_14]”, AAGGAUGCUACUCCUU is lower in “pull-down binding Z-score” value: 0.0504 for the first, -0.922 for the second.

First: AAGGCUGAUGAAACUCAAGCCUU
Second: AAGGGAGGGGCGGGUCGGGAA [G4_2A2_NRAS]
The “pull-down binding Z-score” value of the first is lower: -0.506 for the first, 8.72 for the second.

First: AAGGGGGCCGUGGGGUGGGAGCUGGGGAA [G4_2A2_BCL2]
Second: AAGGUAAAACCAACAGUGGUUGUUAAUGCAGCCAAUGUUUACCUU [DMSMaPseq_invitro_SARS-CoV-2_Motif_60]
The “pull-down binding Z-score” value of the first is higher: 8.07 for the first, -0.572 for the second.

Compared with AAGGUAAGAGGGAUACUUACCUG [U1snRNP5ss-26], AAGGUACAGCAGAUACUUACCUG [U1snRNP5ss-22] is higher in “pull-down binding Z-score” value: -0.614 for the first, -0.32 for the second.

First: AAGUGCUUUUGUUAAUUUAAAACAAUUACCAUUU [SHAPE_invitro_SARS-CoV-2_Motif_354]
Second: AAGUUAAUUUUCCUCUGGCUGUUAUGGCCAGUAACUU [SHAPE_invivo_SARS-CoV-2_Motif_506]
The “pull-down binding Z-score” value of the first is higher: -0.729 for the first, -0.74 for the second.

Compared with “AAGUUUGUUCGCAUUCAACCAGGACAGACUU [DMSMaPseq_invitro_SARS-CoV-2_Motif_187]”, “AAUAACUUACCUUUUAAGUUGACAUGUGCAACUACUAGACAAGUUGUU” is lower in “pull-down binding Z-score” value: 1.1 for the first, -0.907 for the second.

Going from “AAUAGAAGAAUUAUUCUAUU [SHAPE_invitro_SARS-CoV-2_Motif_349]” to “AAUAUUGCUUUGCUUGUACAGUAAGUGACAACAGAUGUUUCAUCUCGUUGACUUUCAGGUUACUAUAGCAGAGAUAUU [DMSMaPseq_invitro_SARS-CoV-2_Motif_488]”, the “pull-down binding Z-score” value rises from -0.546 to -0.135.

Going from “AAUCAAAAAGAGUUGAUU [DMSMaPseq_invitro_SARS-CoV-2_Motif_439]” to “AAUCAUACAUCACCAGAUGUUGAUU [SHAPE_invitro_SARS-CoV-2_Motif_454]”, the “pull-down binding Z-score” value falls from -0.396 to -0.503.

Compared with AAUGAGUUUUACGCAUAUUUGCGUAAACAUU, “AAUGUAGUAGAAUUAUACCUGCACGUGCUCGUGUAGAGUGUUUUGAUAAAUUCAAAGUGAAUUCAACAUUAGAACAGUAUGUCUUUUGUACUGUAAAUGCAUU” is higher in “pull-down binding Z-score” value: -0.889 for the first, 0.059 for the second.

Going from “AAUGUUUUAUUCUCUACAGUGUUCCCACUUACAAGUUUUGGACCACUAGUGAGAAAAAUAUU [DMSMaPseq_invitro_SARS-CoV-2_Motif_260]” to “AAUUAUAAAUUACCAGAUGAUUUUACAGGCUGCGUUAUAGCUUGGAAUUCUAACAAUCUUGAUUCUAAGGUUGGUGGUAAUUAUAAUU”, the “pull-down binding Z-score” value falls from -0.786 to -0.932.

First: AAUUAUGAAGAUUUACUCAUUCGUAAGUCUAAUCAUAAUU
Second: AAUUGAUUCUUACUUUGUAGUUAAGAGACACACUUUCUCUAACUACCAACAUGAAGAAACAAUU
The “pull-down binding Z-score” value of the first is lower: -0.0299 for the first, 0.502 for the second.

“ACAACAACCAUAAAACCAGUUACUUAUAAAUUGGAUGGUGUUGU” was tested, and the “pull-down binding Z-score” value was -0.686.
